Measured values taken from patent publication US20140259226.

Columns and labels:
[1] = target: T1, PYR1^CA3 (H60P, V83F, F159V), 6xHis fusion
T1 chain: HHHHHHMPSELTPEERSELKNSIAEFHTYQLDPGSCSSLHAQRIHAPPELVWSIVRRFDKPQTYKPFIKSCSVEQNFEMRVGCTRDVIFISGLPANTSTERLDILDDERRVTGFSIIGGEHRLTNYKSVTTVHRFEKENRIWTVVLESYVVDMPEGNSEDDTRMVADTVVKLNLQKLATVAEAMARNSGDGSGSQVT

[2] = target: T2, PYR1^CA4 (H60P, V83F, F159V, M158I), 6xHis fusion
T2 chain: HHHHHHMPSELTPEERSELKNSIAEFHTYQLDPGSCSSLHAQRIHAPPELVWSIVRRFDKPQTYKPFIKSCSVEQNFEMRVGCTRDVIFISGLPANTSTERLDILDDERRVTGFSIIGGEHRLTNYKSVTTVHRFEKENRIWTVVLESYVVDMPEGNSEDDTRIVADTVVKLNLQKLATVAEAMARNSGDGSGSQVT

B1: 6xHis-SUMO-ABI1 (protein)
chain: HHHHHHSDSEVNQEAKPEVKPEVKPETHINLKVSDGSSEIFFKIKKTTPLRRLMEAFAKRQGKEMDSLRFLYDGIRIQADQTPEDLDMEDNDIIEAHREQIGGMEEVSPAIAGPFRPFSETQMDFTGIRLGKGYCNNQYSNQDSENGDLMVSLPETSSCSVSGSHGSESRKVLISRINSPNLNMKESAAADIVVVDISAGDEINGSDITSEKKMISRTESRSLFEFKSVPLYGFTSICGRRPEMEDAVSTIPRFLQSSSGSMLDGRFDPQSAAHFFGVYDGHGGSQVANYCRERMHLALAEEIAKEKPMLCDGDTWLEKWKKALFNSFLRVDSEIESVAPETVGSTSVVAVVFPSHIFVANCGDSRAVLCRGKTALPLSVDHKPDREDEAARIEAAGGKVIQWNGARVFGVLAMSRSIGDRYLKPSIIPDPEVTAVKRVKEDDCLILASDGVWDVMTDEEACEMARKRILLWHKKNAVAGDASLLADERRKEGKDPAAMSAAEYLSKLAIQRGSKDNISVVVVDLKPRRKLKSKPLN
B1 was tested, and the “PP2C activity, % of control, pNPP hydrolysis, in the absence of ABA” value (from here on “PP2C activity, % of control”) [1] was “both the triple and quadruple mutants dramatically increased basal PYR1 activity relative to wild-type PYR1” and the “PP2C activity, % of control” value [2] was “both the triple and quadruple mutants dramatically increased basal PYR1 activity relative to wild-type PYR1”.

B2: 6xHis-SUMO-ABI2 (protein)
chain: HHHHHHSDSEVNQEAKPEVKPEVKPETHINLKVSDGSSEIFFKIKKTTPLRRLMEAFAKRQGKEMDSLRFLYDGIRIQADQTPEDLDMEDNDIIEAHREQIGGMDEVSPAVAVPFRPFTDPHAGLRGYCNGESRVTLPESSCSGDGAMKDSSFEINTRQDSLTSSSSAMAGVDISAGDEINGSDEFDPRSMNQSEKKVLSRTESRSLFEFKCVPLYGVTSICGRRPEMEDSVSTIPRFLQVSSSSLLDGRVTNGFNPHLSAHFFGVYDGHGGSQVANYCRERMHLALTEEIVKEKPEFCDGDTWQEKWKKALFNSFMRVDSEIETVAHAPETVGSTSVVAVVFPTHIFVANCGDSRAVLCRGKTPLALSVDHKPDRDDEAARIEAAGGKVIRWNGARVFGVLAMSRSIGDRYLKPSVIPDPEVTSVRRVKEDDCLILASDGLWDVMTNEEVCDLARKRILLWHKKNAMAGEALLPAEKRGEGKDPAAMSAAEYLSKMALQKGSKDNISVVVVDLKGIRKFKSKSLN
For B2, the “PP2C activity, % of control” value [1] was “both the triple and quadruple mutants dramatically increased basal PYR1 activity relative to wild-type PYR1” and the “PP2C activity, % of control” value [2] was “both the triple and quadruple mutants dramatically increased basal PYR1 activity relative to wild-type PYR1”.
